± gives the uncertainty stated by the source.

Among the data in the Human Domainome abundance scans (Beltran et al. 2025) are abundance fitness values, retold here.

The series in a line: abundance fitness (aPCA) (normalised: wild type 0, dead -1); higher = more abundant; growth selection in yeast, the domain comes from the species named. The following applies: Saccharomyces cerevisiae (strain ATCC 204508 / S288c).
Substance “E3 ubiquitin-protein ligase RSP5 P343G, P39940” returned an abundance fitness of -0.018 ± 0.05.
The same measure for “E3 ubiquitin-protein ligase RSP5 P343H, P39940”: 0.09 ± 0.082.
The same measure for “E3 ubiquitin-protein ligase RSP5 P343I, P39940”: 0.017 ± 0.099; for “E3 ubiquitin-protein ligase RSP5 P343K, P39940”: 0.102 ± 0.07; for “E3 ubiquitin-protein ligase RSP5 P343L, P39940”: -0.021 ± 0.048.
The same measure for “E3 ubiquitin-protein ligase RSP5 P343N, P39940”: 0.116 ± 0.098; for “E3 ubiquitin-protein ligase RSP5 P343Q, P39940”: -0.041 ± 0.059.
In turn, “E3 ubiquitin-protein ligase RSP5 P343S, P39940” showed an abundance fitness of 0.07 ± 0.056.
The same measure for “E3 ubiquitin-protein ligase RSP5 P343T, P39940”: 0.014 ± 0.057; for “E3 ubiquitin-protein ligase RSP5 P343W, P39940”: -0.313 ± 0.054; for “E3 ubiquitin-protein ligase RSP5 P343Y, P39940”: -0.402 ± 0.35.
Substance “E3 ubiquitin-protein ligase RSP5 P362A, P39940” displayed an abundance fitness of -0.747 ± 0.046.
The same measure for “E3 ubiquitin-protein ligase RSP5 P362D, P39940”: -0.813 ± 0.097; for “E3 ubiquitin-protein ligase RSP5 P362E, P39940”: -0.723 ± 0.076; for “E3 ubiquitin-protein ligase RSP5 P362F, P39940”: -1.41 ± 0.47.
The figure for “E3 ubiquitin-protein ligase RSP5 P362G, P39940” is -0.852 ± 0.044; for “E3 ubiquitin-protein ligase RSP5 P362H, P39940” it is -0.905 ± 0.28; for “E3 ubiquitin-protein ligase RSP5 P362I, P39940” it is -0.791 ± 0.12.
The figure for “E3 ubiquitin-protein ligase RSP5 P362K, P39940” is -1.01 ± 0.1.
“E3 ubiquitin-protein ligase RSP5 P362L, P39940” returned an abundance fitness of -0.993 ± 0.051.
The figure for “E3 ubiquitin-protein ligase RSP5 P362M, P39940” is -1.2 ± 0.35; for “E3 ubiquitin-protein ligase RSP5 P362Q, P39940” it is -0.709 ± 0.093.
The same measure for “E3 ubiquitin-protein ligase RSP5 P362S, P39940”: -1.09 ± 0.065.
The substance “E3 ubiquitin-protein ligase RSP5 P362T, P39940” displayed an abundance fitness of -0.708 ± 0.067.
The same measure for “E3 ubiquitin-protein ligase RSP5 P362V, P39940”: -0.705 ± 0.048.
On to “E3 ubiquitin-protein ligase RSP5 P362W, P39940”, for which the abundance fitness was -1.21 ± 0.062.
Regarding “E3 ubiquitin-protein ligase RSP5 P362Y, P39940”, the abundance fitness was -1.01 ± 0.18.
The figure for “E3 ubiquitin-protein ligase RSP5 Q339A, P39940” is -0.143 ± 0.047; for “E3 ubiquitin-protein ligase RSP5 Q339C, P39940” it is -0.092 ± 0.07.
With “E3 ubiquitin-protein ligase RSP5 Q339D, P39940”, the abundance fitness is -0.602 ± 0.09.
For the substance “E3 ubiquitin-protein ligase RSP5 Q339E, P39940”, the abundance fitness turned out to be 0.006 ± 0.054.
Substance “E3 ubiquitin-protein ligase RSP5 Q339F, P39940” registered an abundance fitness of -0.26 ± 0.074.
“E3 ubiquitin-protein ligase RSP5 Q339G, P39940” displayed an abundance fitness of -0.256 ± 0.044.
The figure for “E3 ubiquitin-protein ligase RSP5 Q339H, P39940” is -0.134 ± 0.058; for “E3 ubiquitin-protein ligase RSP5 Q339I, P39940” it is -0.073 ± 0.069.
The substance “E3 ubiquitin-protein ligase RSP5 Q339K, P39940” yielded an abundance fitness of 0.026 ± 0.077.
The same measure for “E3 ubiquitin-protein ligase RSP5 Q339L, P39940”: -0.109 ± 0.051.
The same measure for “E3 ubiquitin-protein ligase RSP5 Q339M, P39940”: -0.008 ± 0.069; for “E3 ubiquitin-protein ligase RSP5 Q339P, P39940”: -0.297 ± 0.062; for “E3 ubiquitin-protein ligase RSP5 Q339R, P39940”: -0.051 ± 0.043.
The figure for “E3 ubiquitin-protein ligase RSP5 Q339S, P39940” is -0.138 ± 0.047.
In turn, “E3 ubiquitin-protein ligase RSP5 Q339T, P39940” gave an abundance fitness of -0.11 ± 0.065.
The figure for “E3 ubiquitin-protein ligase RSP5 Q339V, P39940” is -0.076 ± 0.045.
The same measure for “E3 ubiquitin-protein ligase RSP5 Q339W, P39940”: -0.406 ± 0.046; for “E3 ubiquitin-protein ligase RSP5 Q339Y, P39940”: -0.181 ± 0.1.
The figure for “E3 ubiquitin-protein ligase RSP5 Q365A, P39940” is 0.097 ± 0.044.
The substance “E3 ubiquitin-protein ligase RSP5 Q365C, P39940” yielded an abundance fitness of 0.077 ± 0.089.
The same measure for “E3 ubiquitin-protein ligase RSP5 Q365E, P39940”: 0.057 ± 0.059; for “E3 ubiquitin-protein ligase RSP5 Q365F, P39940”: -0.034 ± 0.15; for “E3 ubiquitin-protein ligase RSP5 Q365G, P39940”: 0.052 ± 0.046.
The same measure for “E3 ubiquitin-protein ligase RSP5 Q365H, P39940”: 0.167 ± 0.11; for “E3 ubiquitin-protein ligase RSP5 Q365K, P39940”: 0.022 ± 0.064.
The substance “E3 ubiquitin-protein ligase RSP5 Q365L, P39940” gave an abundance fitness of 0.033 ± 0.058.
“E3 ubiquitin-protein ligase RSP5 Q365M, P39940” gave an abundance fitness of -0.022 ± 0.17.
The substance “E3 ubiquitin-protein ligase RSP5 Q365R, P39940” gave an abundance fitness of 0.014 ± 0.043.
The same measure for “E3 ubiquitin-protein ligase RSP5 Q365S, P39940”: 0.038 ± 0.062; for “E3 ubiquitin-protein ligase RSP5 Q365V, P39940”: -0.014 ± 0.045; for “E3 ubiquitin-protein ligase RSP5 Q365W, P39940”: 0.051 ± 0.08.
Consider “E3 ubiquitin-protein ligase RSP5 Q365Y, P39940”, for which the abundance fitness is -0.004 ± 0.1.
The same measure for “E3 ubiquitin-protein ligase RSP5 Q366A, P39940”: 0.047 ± 0.13.
The same measure for “E3 ubiquitin-protein ligase RSP5 Q366C, P39940”: -0.572 ± 0.41; for “E3 ubiquitin-protein ligase RSP5 Q366G, P39940”: 0.131 ± 0.064; for “E3 ubiquitin-protein ligase RSP5 Q366H, P39940”: -0.304 ± 0.19.
Substance “E3 ubiquitin-protein ligase RSP5 Q366L, P39940” gave an abundance fitness of 0.24 ± 0.11.
The figure for “E3 ubiquitin-protein ligase RSP5 Q366R, P39940” is 0.117 ± 0.053.
On to “E3 ubiquitin-protein ligase RSP5 Q366S, P39940”, for which the abundance fitness was -0.008 ± 0.077.
For “E3 ubiquitin-protein ligase RSP5 Q366T, P39940”, the abundance fitness turned out to be 0.054 ± 0.078.
On to “E3 ubiquitin-protein ligase RSP5 Q366V, P39940”, for which the abundance fitness was 0.023 ± 0.11.
The figure for “E3 ubiquitin-protein ligase RSP5 Q366W, P39940” is -0.001 ± 0.061.
The same measure for “E3 ubiquitin-protein ligase RSP5 Q366Y, P39940”: 0.307 ± 0.21.
The same measure for “E3 ubiquitin-protein ligase RSP5 R340A, P39940”: 0.018 ± 0.047.
“E3 ubiquitin-protein ligase RSP5 R340C, P39940” registered an abundance fitness of 0.064 ± 0.059.
The figure for “E3 ubiquitin-protein ligase RSP5 R340D, P39940” is -0.256 ± 0.074; for “E3 ubiquitin-protein ligase RSP5 R340E, P39940” it is -0.01 ± 0.063.
The same measure for “E3 ubiquitin-protein ligase RSP5 R340F, P39940”: -0.155 ± 0.16; for “E3 ubiquitin-protein ligase RSP5 R340H, P39940”: -0.206 ± 0.22; for “E3 ubiquitin-protein ligase RSP5 R340I, P39940”: 0.002 ± 0.087.
The same measure for “E3 ubiquitin-protein ligase RSP5 R340K, P39940”: 0.133 ± 0.081; for “E3 ubiquitin-protein ligase RSP5 R340L, P39940”: 0.078 ± 0.055.
Regarding “E3 ubiquitin-protein ligase RSP5 R340M, P39940”, the abundance fitness amounted to 0.052 ± 0.055.
The figure for “E3 ubiquitin-protein ligase RSP5 R340N, P39940” is -0.089 ± 0.08.
The figure for “E3 ubiquitin-protein ligase RSP5 R340P, P39940” is -1 ± 0.063.
The figure for “E3 ubiquitin-protein ligase RSP5 R340Q, P39940” is 0.001 ± 0.054; for “E3 ubiquitin-protein ligase RSP5 R340S, P39940” it is -0.039 ± 0.057; for “E3 ubiquitin-protein ligase RSP5 R340T, P39940” it is -0.108 ± 0.062.
“E3 ubiquitin-protein ligase RSP5 R340V, P39940” displayed an abundance fitness of 0.022 ± 0.049.
The same measure for “E3 ubiquitin-protein ligase RSP5 R340W, P39940”: -0.088 ± 0.054; for “E3 ubiquitin-protein ligase RSP5 R346A, P39940”: 0.121 ± 0.05; for “E3 ubiquitin-protein ligase RSP5 R346C, P39940”: 0.095 ± 0.069.
The figure for “E3 ubiquitin-protein ligase RSP5 R346D, P39940” is 0.307 ± 0.057.
The figure for “E3 ubiquitin-protein ligase RSP5 R346E, P39940” is 0.414 ± 0.06.
